Assay: soluble on expression in E. coli; label from the status in PepcDB or PDB records

Q: Which “soluble on expression in E. coli” value does the source give for “MAVLIETTLGDLIIDLFVKERPRCSLNFLKLCKKKYYNLNQFHSIERNYVAQTGDPTGTGKGGESVYSDMYGEQGRYFEREDLPKMRHTRMGIVSFVNNGDNMLGSQFFITLGENLDYLDDQHTIFGQVTEGLETLEKLNEQLADTNNRPFKDIRISHTIVLDDPFDEDARISFPPRSPSPTYEMLVKTDQIALDEKEDEDEGKTAEEIAEELQQREMAEQAQILEMVGDLKDADEVPPENVLFVCKLNPVTTDEDLEIIFSRFGKINNCEIVRDRRSGDSLQYAFIEFDNAKSCEQAFFKMDNVLIDDRRIHVDFSQSVSQNYKYKPKSQQQEAPKRRQSPQRRPEVKRSHQRSPSPRRRRSPSPKKDKKRDYRREPARRRRSSDNHRDRDRSYRDNNRDRRDNHRDSDRDRRRHDRSPDRRRDRR” here?
A: not soluble

Q: Which “soluble on expression in E. coli” value does the source give for “MAVNLNPPQAGQLPAVAGVELLVAEAGIKTPGRKDVLVVKLDKGNTVAGVFTRNRFCAAPVQLCQEHLAAGVQIRALVVNTGNANAGTGFDGRARALSVCRAVAERDQLQTEQVLPFSTGVILEPLPADKIVAALPALRQADWAEAAEAIMTTDTLAKAASRRLDIGGKAVTVTGIAKGSGMIHPNMATMLGFVATDAAVTRPMLNQLVREVADQSFNSITVDGDTSTNDSFILISTGQSGAELIDSAEQPAYQQLKQALLEVAIELAQAIVRDGEGATKFITVDVNGGRSVAECKDVAYAIARSPLVKTAFFASDPNLGRLLAAIGYAGVADLDVDRLSLYLDDVLVACEGGRNPAYKEAQGQAVMNQSEITVRVELGRGSASARVWTCDFSYEYVRINADYRSLEHHHHHH” here?
A: not soluble

Q: For “MAVPATIPLTITNNSGRAEQIHIYNLGTELSSGRQGWADASGAFHPWPAGGNPPTPAPDASIPGPAPGRSTTIQIPKFSGRIYFSYGRKMEFRLTTGGLVQPAVQNPTDPNRDILFNWSEYTLNDSGLWINSTQVDMFSAPYTVGVRRGDGTTLSTGKLRPGGYNGVFNALRGQSGGWANLIQTRSDGTVLRALSPLYGVETGALPASVMDDYINRVWNKYTGTDLIVTPFADRPDVRYTGRVSGGVLRFTDGSGAVVTTFQKPDASSVFGCHRLLDAPNDQVRGPISRTLCAGFNRTTLLANPHQPDRSAAGFYQEPVTNHYARIIHAHMADGKAYGFAFDDVGHHESLVHDGDPRGASLTLDPFD”, which “soluble on expression in E. coli” value is on record?
A: soluble

Q: For “MAVPPAYADLGKSAKDIFSKGYGFGTVKLDLKTKSQSGVEFTTGGSSNTDTGKAAGNLETKYKVKELGLSLNQKWNTDNVLTTEVTLEDQLAKGLKLGLDTSFVPNTGKKSAKLKTGYKREYMNVGCDLDFDLAGPTVHAAAVLGYEGWLAGYQMAFDTAKSKLAQNNFALGYKAGDFQLHTNVNDGTEFGGSIYQKVNGQLETAVNLAWTAGSNNTRFGIAAKYQLDKDSSVSAKVNNASLVGVGYTQSLRPGVKLTLSALIDAKNFNAGGHKVGMGFELEV”, which “soluble on expression in E. coli” value is on record?
A: not soluble

Q: With “MAVTVSVAQATPAPFDMAARFKALYTREWRWRQAEFPGVVERSSQPQCVDHLPKVDLARQNKRTAYWQQVLEELKTIDPVRLSSKDQINYQVYRQQIEVLLDGQRFRSWEMSFNSDTAFWSDLSFSARDRFRTSEDYRCYLGVLADIPRYFNEQIVNLRQGLARGFAQPRVTLEGRDQVIAEVAGAAGEDNLFYIPFKQMPTMMSAGEQARLRAQVLHLIVDQVVPAYRHLLAFMREEYLPKARTVLAAESLPGGVAYYRAKIFEYTTLDLDPEAIYQIGVAEVAKLRQQMDQVIVDSGFKTSPDQQIFSAFLRYLRTDPQFYPKTPEALLKEAAWIAKRVDAKIGLYIGRLPRRRFAIEPVPADVAPYYTSGRGGPGIYFVNTYDLPSRPLYNLTALTLHESSPGHALQMPLAEEAKEVPEFRRYAFISAYGEGWAVYAEYLGQEMGLYDTPYDRFGYLSYQIWRACRLVIDTGIHHKGWTRAQAQAYLRDNTALSEREITTEVDRYISWPGQALSYYLGELKILELRHKAEAALGAKFDIRHFHDAVLGLGSVPLQVLEARIDRFIAE” as the sequence, how does the “soluble on expression in E. coli” value read?
A: not soluble

Q: With “MAVVGYISYDNRDTFMNAKDVLSTEIEAVNGKADTKESKECEDTQASDEVALETDSTEEILNAGETVLTSASTESEECVAQVKLGREQVRSKNKEALQKIIDDAGVSEAEKKSAVDAMVKLTENAQMEEDAQMMLEAKGFKNAVVSLSDECCDVIVGKDDVTDEKRAQIEDIIKRKTNIGASNIVISTMD” as the sequence, how does the “soluble on expression in E. coli” value read?
A: not soluble

Q: With “MAYGVMSWWDYGHYIETLGHRMPNANPFQAGIGGRRGSINETNVPGAAPFLTAQSEEEATEVLESIHPDPEKSGARYIMSDERMAVDIFMAMPEWTLDTEGYMQPYWTGDGYQYLPSKRYFDSMESRLHFLDGNGLKQYRLVYETWAYQTQEAGYKQVYNFLYGSSIPEVDSGYVKIFEYVKGAKITGTVSPNETVNINTTILTGQGRTFEYSQLEHHHHHH” as the sequence, how does the “soluble on expression in E. coli” value read?
A: not soluble

Q: For “MCAVLRQPKCVKLRALHSACKFGVAARSCQELLRKGCVRFQLPMPGSRLCLYEDGTEVTDDCFPGLPNDAELLLLTAGETWHGYVSDITRFLSVFNEPHAGVIQAARQQLSDEQAPLRQKLLADLLHHVSQNITAETREQDPSWFEGLESRFRNKSGYLRYSCESRIRGYLREVSAYTSMVDEAAQEEYLRVLGSMCQKLKSVQYNGSYFDRGAEASSRLCTPEGWFSCQGPFDLESCLSKHSINPYGNRESRILFSTWNLDHIIEKKRTVVPTLAEAIQDGREVNWEYFYSLLFTAENLKLVHIACHKKTTHKLECDRSRIYRPQTGS”, which “soluble on expression in E. coli” value is on record?
A: soluble

Q: Which “soluble on expression in E. coli” value does the source give for “MCDIGNRQAYQRAQLDALLGRVRLQANQMEWRPGIYVGEGTTIASSAQLEPPLWIGQHCYIGEEVQLKAGTVIGDESRIEAGACLDRAVVWNRVQIGQRSHLEGCVLEHHHHHH” here?
A: not soluble

Q: Which “soluble on expression in E. coli” value does the source give for “MCEFKDFRRNIPCFKEYDENSFIGKWYDDGVWDDEEYWKLENDLIEVRKKYPYPMDIPRDIVIGIGTIIDFLMVQNWKLFEIKASTWLPKSVKINERYERFRVMLRYIFTDLDVEDWKFFYFPIQHSKGRLRRKV” here?
A: not soluble

Q: Which “soluble on expression in E. coli” value does the source give for “MCINLQKMCKKCAKMCKICAKVCKKCAKNVQKKCKKCGKMCKKCAKKCLKKSKFSDPRNPKMLPTSLLVCSTGIPIECSAELLSKFKTRRI” here?
A: soluble

Q: Which “soluble on expression in E. coli” value does the source give for “MCLLTFAYQTNKRFPFVFAANRDEYYDRPTLFAHEWKEDPNVIGGRDLKKGGTWLGFTKEGKIAALTNVRDSFKHSGIPFQSRGFIVQDYLTSNTSAQLFMERLIQTADEFDGYNLVFGSYHDLYYYTNRMEKGEKLKPGYYMLSNGQMNSHWPKAVKVRTHLQSVLEREQDIETIIKKLLAIMQDEERFPDEQLPDTGVGIEWERILSPIFINGKTYGTRATTVIICTDEGESFFLEWNYGPMGIFLEKREFHIQLPSSYLNMKKDYELEHHHHHH” here?
A: not soluble

Q: With “MCMAQRLNVNPTRMELSKLKKRLATATRGHKLLKDKQDELMRQFINLIKYNNQLRDEVEKELGSSLKDFVMARAVMSSEFLEEAIAYPKEEIEVEVGNKNIMSVNVPIMNFKRKLEGDEGSIYPYGFMNTSAELDDAISKLYGILPKLLELAEVEKSGQLMADEIEKTRRRVNALEYMTIPQLKETIRYIRMKLDENERSALTRLMKVKSMIEQRGLEHHHHHH” as the sequence, how does the “soluble on expression in E. coli” value read?
A: not soluble

Q: For “MCMASKVLNKVMGIIGLNDEDFDEYEDEVMEEKAIARENSYDYDEKLNDKNSSNSNNKVVNIHTASSVKVVIVKPKDYDEATQIDDLKNRKIVVVNVTDLEPKTAQRLLDFMGGASYVLNGELLEIDKGVYLLSPSNVDISRDLKNDLASKSIFNWSKLEHHHHHH”, which “soluble on expression in E. coli” value is on record?
A: not soluble

Q: For “MCMDRIEKLIKKVSKPARLSVERCRLYTESMKQTEGEPMIIRQAKALKHVLENIPIQILDSELIVGTMLPNPPGAIIFPEGVGLRIINELDSLPNRETNRLMVDEEDAKVLREEIAPYWQRKTIEAFAFPLMPDIMQILYTGSVFVLTEIAGISHVAVNYPYLLRRGFRWFLEESERRIRALEESGVYEGEKYSFYQAAKIVSEAVINYGLRYSKLAEELAESEDGERREELLKIAEICRKVPAEKPETFWEAVQFVWLVQSALHQENYEQAISMGRIDQYLYPFFKKDIGEGRINRELAFDILANLWIKTNEIVPAFDSLLEQYFSGQATNQAVTIGGCDIYGNDATNELTYLMLEVTDRLRLRQPNVHVRINKGSPESFLKRLAEAISSGCNNLALFFDDAAVKALKNAEVDDRDALNYTTDGCVEIAPFGNSFTSSDAALINVAKALEYALNEGVDLQFGYEFGAKTEKPKFLEDLLEKLREQVSHIVKLVVRGSNVLSYANAEVKPTPLLSLCVEDCFEKGVDVSRGGARYNFTGIQAVGIADVGDSLVAIEGALNAGYSMDDIVEACRKNFVGYEKLHKLLLQSPKYGNDDDAADKYTKMVLEWYCEEVNRHRNFRGGKFAAGCYPMTTNVGFGFFTSALPSGRKSGEPLNPGVSPSTGMDREGVTAVINSASKLSYENLPNGASLTINLSSDVLGEKGDAVIEALIKSSMELGVMHVQFNILKEDLLRKAQQEPEKYRWLLVRVAGWSAYFVELSRPVQEEVIRRISCRI”, which “soluble on expression in E. coli” value is on record?
A: soluble

Q: For “MCVGVPMTVVTSDNGTALCERRGEQRRVSTLLIGEVAVGDRVLVFIDNAMRLLEPDEARLIDDALDGLAAAMQGRDFEHLFADLIDREPQLPAFLRNDVVPPHG”, which “soluble on expression in E. coli” value is on record?
A: not soluble

Q: Which “soluble on expression in E. coli” value does the source give for “MCVVIFLKFLFSDNGNNQHGTEAAFGRLAQSYRIQDLLFIIVIFFRAIHIMMFHRPPSARPPLNHVDQLKSLQATALGKPGMRSQATEPQPIGNTVSPLEFRIHDMNRRLYIFSSTGVSENDQQQWWDAFSHEFFDDDCKLWFVIGSEPVAFASRERYIINRQFIPKFFRSIFDSGMRELQYVLRGPSRECTLANGSQAYENENVLQITRYDQSSQFEVNTEGKLYVEFAPFDEVMNYRIKAWTLELKRSNEFVYNQNTADYRVEAQNPEQENKPRMGFFKSTFNLMTMLKILDPMQSIMSSAKSAPAITPREVMKRTLFQHHQVRQQNMRQQQLNQQMMIPAPEPEKPKPARKRQRKPAANPRGSKKATAAAAAAAAAATNGVPPTVPTASPANNQQFPPNPMTSQFQQMSYPDVMVVGEPSMMGSEFGENDERTISRVENSQYDPNAMQMQSLGQGPNSSMNINGRNMMNQHHPGMQPPPGQQHMPPHSMGSQMPTSMHNPMHMPPGSMQGHGGMPPMPSTMANQMPPPNLPPHTMSNQMPNSRMPPMQGQMPPSGMPGQMSNPNMMGSGMPPMSMSSQMPGSMSNPMPNQMPGGMQMNQMPPPNYSQYTGGPPPQWPPPNSAMITG” here?
A: not soluble

Q: For “MDAKVAFSPHSDANGRLDEIGADIDTAQSSVLFSLAFLGQMTRGAIGPALGRALERPEVHVMGIADAEVRAGNLGLNVLTPDNRRRVVRAAALTGNVPPPFLTEPSGLAGVDGNQRGTRMHHKFVVLDFDKPTARVYLGSYNFSNPADDENGENLVVVRDRTVATSYMIEALRMYDHYVFRVASEASDGPARPLEHHHHHH”, which “soluble on expression in E. coli” value is on record?
A: not soluble

Q: With “MDALFNHKEFIRLSHEGNINYEKLKVPKNTELVNTADQRNSHVYLIIDGFVSISMNPESNSIYTILGKGSFVNYYSLFQGNVDDFLFKTISTCTVYKYTFKDLEYFLSMFPENFGFQFFIMRDLARHAFFKSLSSETSSSDKLELSFINIGKLHGTPYEKDSVILPKEMRTSVIAAYSNLSKSSFYKQLARLKDQGKIWKNDREWVLKNKEVYDYLKAREIDV” as the sequence, how does the “soluble on expression in E. coli” value read?
A: not soluble

Q: For “MDASSGAAADPAEGSAPEGAASGGTGAPNGTDPLDAPNDLGNVPGESAGAGAGAASSGASRSAIMAVTAGGSQGPAVSWGEAADSRSSTWETEGRAAGSLARQAVTRSCSGCGRAGRSGSAEVMRCTTVASESPSKGPRPQAAKTSTEPRENTSLGGPRSVAPRACSGDMKPGVPITEPAAVSAVASTARAMPKSMIRGPSAARITLPGFRSRCTSPQEWMAARPSASPAPSRSTVCSGSGPCASTASCSDGPGT”, which “soluble on expression in E. coli” value is on record?
A: not soluble

Q: With “MDDATNKKRKVFVSTILTFWNTDRRDFPWRHTRDPYVILITEILLRRTTAGHVKKIYDKFFVKYKCFEDILKTPKSEIAKDIKEIGLSNQRAEQLKELARVVINDYGGRVPRNRKAILDLPGVGKYTCAAVMCLAFGKKAAMVDANFVRVINRYFGGSYENLNYNHKALWELAETLVPGGKCRDFNLGLMDFSAIICAPRKPKCEKCGMSKLCSYYEKCST” as the sequence, how does the “soluble on expression in E. coli” value read?
A: soluble

Reference: the DeepSol protein solubility set
